# B1: NNFGAIL peptide (model amyloidogenic peptide derived from islet amyloid polypeptide, IAPP) (peptide)
# peptide: NNFGAIL
# notes: […]; text and methods print NNFGAIL; source: synthetic peptide (Pepscan)
# Biological target: the molecule itself
# Test: thioflavin-T fluorescence
protein,measurement,value
B1,binding result,binds
